Laboratory results as given in PMC4550891.

Target: Glu286 (UniProt position 286, FFGHPEVYIIV)
Experiment: kinetics

| Substance | pKa (Reduced wild-type CytcO reacting with O2, P3->F3 transition, cited from earlier work) | pKa (~22 °C, not stated (100 mM buffer), 100 mM buffer after 1:5 mixing: MES (pH 6, 6.5), HEPES (pH 7-8), BIS-TRIS propane (pH 7-9), CHES (pH 9, 9.5), CAPS (pH 10-11). Also 0.1 mM EDTA., Fully (four-electron) reduced CytcO reacting with 1 mM O2, P3 intermediate, detergent-solubilised, no membrane potential) |
| --- | --- | --- |
| Cytochrome c oxidase (aa3-type), subunit I carries the titrating residue (Rhodobacter sphaeroides) | 9.4 |  |
| Cytochrome c oxidase (aa3-type) Ser425Ala variant (subunit I) (Rhodobacter sphaeroides; S425A) |  | >10.5 |
